Reference: PMC4410316
Where two headings read alike, the source gives them in different places.

Key:
human thrombin (HT) [1] = molecular target: T1, human thrombin (HT) (Homo sapiens (human), UniProt P00734;P00734 328-363;364-622); assay: nanopore single-molecule titration
human thrombin (HT) [2] = molecular target: T1, human thrombin (HT); assay: nanopore single-molecule titration; remark: listed apart in the source
human thrombin (HT) [3] = molecular target: T1, human thrombin (HT); assay: nanopore single-molecule titration; remark: listed apart in the source
human thrombin (HT) [4] = molecular target: T1, human thrombin (HT); assay: nanopore single-molecule titration; remark: listed apart in the source
human thrombin (HT) [5] = molecular target: T1, human thrombin (HT); assay: nanopore single-molecule

GGATGGTGTGGTTGG (structured_DNA) [TBA-T3A]
Kd (human thrombin (HT) [1]): 6 ± 1 nM

GGTTGGTGTGGATGG (structured_DNA) [TBA-T12A]
Kd (human thrombin (HT) [2]): 7 ± 1 nM

GGTTGGTGTGGTTGG (structured_DNA) [TBA]
Kd (human thrombin (HT) [3]): 13 ± 3 nM
Kd (human thrombin (HT) [4]): 8 ± 1 nM

CACCATCACCACCATCAT (ssDNA) [Random DNA]
binding result (human thrombin (HT) [5]): no binding
